Consider 1 substance from patent US20200368282A1.

Usually Kd stands for the free concentration of one partner at which half of the binding sites on the other are occupied at equilibrium, for simple one-to-one binding. A higher Kd goes with lower affinity.

The assay addresses human TNFR2 (tumor necrosis factor receptor 2) (human) (UniProt P20333). Briefly: surface plasmon resonance (Pioneer SensiQ). On the technique in general: SPR reads the build-up and loss of mass on a sensor chip optically.
UniProt P20333, sequence (P20333 23-257 S98P/S102P limits assumed): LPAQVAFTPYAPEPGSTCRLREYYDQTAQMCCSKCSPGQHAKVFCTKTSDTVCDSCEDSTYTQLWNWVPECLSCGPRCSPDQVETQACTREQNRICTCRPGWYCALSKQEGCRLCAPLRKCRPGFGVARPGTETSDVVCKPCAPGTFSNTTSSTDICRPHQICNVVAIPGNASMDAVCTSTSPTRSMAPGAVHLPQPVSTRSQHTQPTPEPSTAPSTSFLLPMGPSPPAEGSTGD

With “Clone MAB726 (R&D Systems, Inc.) (antibody)”, the dissociation constant (Kd) stood at 0.621 nM.
